These results are taken from PMC5286483, “Effect of R119G Mutation on Human P5CR1 Dynamic Property and Enzymatic Activity” (BioMed Research International, 2017).

Data set [1] concerns the molecule itself. The experiment in a line: SEC; Superdex-75 column (10/300 mm), 20 mM Caps, pH 9.4, 0.5 M NaCl, 0.5 mL/min; refolded R119G mutant. (Size exclusion chromatography separates by hydrodynamic size, large species first.)
Data set [2] concerns the molecule itself. Kind of data set: SEC; R119H mutant (Fig. S4); column and buffer not stated.

B1: Human P5CR1 R119G mutant (enzyme, UniProt P32322 1-319, looked up)
chain: MSVGFIGAGQLAFALAKGFTAAGVLAAHKIMASSPDMDLATVSALRKMGVKLTPHNKETVQHSDVLFLAVKPHIIPFILDEIGADIEDRHIVVSCAAGVTISSIEKKLSAFRPAPRVIGCMTNTPVVVREGATVYATGTHAQVEDGRLMEQLLSSVGFCTEVEEDLIDAVTGLSGSGPAYAFTALDALADGGVKMGLPRRLAVRLGAQALLGAAKMLLHSEQHPGQLKDNVSSPGGATIHALHVLESGGFRSLLINAVEASCIRTRELQSMADQEQVSPAAIKKTILDKVKLDSPAGTALSPSGHTKLLPRSLAPAGKD
notes: Pyrroline-5-carboxylate reductase 1 (P5CR1), human, encoded by PYCR1, with the ARCL-associated mutation R119G; monomer molecular weight printed as 33.3 kDa; Made by PCR mutagenesis of WT-pET28a-P5CR1; also called R119G P5CR1; pET28a-P5CR1-R119G; source: E. coli BL21 (DE3), inclusion bodies, denatured in 6 M urea, purified (Ni2+-chelating column), renatured, SEC
As for B1, the stoichiometry N – broadly, the number of molecules, sites or subunits per partner or assembly – in data set [1] is 2.

B2: Human P5CR1 R119H mutant (enzyme, UniProt P32322 1-319, looked up)
chain: MSVGFIGAGQLAFALAKGFTAAGVLAAHKIMASSPDMDLATVSALRKMGVKLTPHNKETVQHSDVLFLAVKPHIIPFILDEIGADIEDRHIVVSCAAGVTISSIEKKLSAFRPAPRVIHCMTNTPVVVREGATVYATGTHAQVEDGRLMEQLLSSVGFCTEVEEDLIDAVTGLSGSGPAYAFTALDALADGGVKMGLPRRLAVRLGAQALLGAAKMLLHSEQHPGQLKDNVSSPGGATIHALHVLESGGFRSLLINAVEASCIRTRELQSMADQEQVSPAAIKKTILDKVKLDSPAGTALSPSGHTKLLPRSLAPAGKD
notes: Pyrroline-5-carboxylate reductase 1 (P5CR1), human, encoded by PYCR1, with the mutation R119H; source: expressed mostly as inclusion bodies, purified with a Ni2+-chelating column; plasmid constructed 'by the previous method'
As for B2, in data set [2], the “stoichiometry N” value is 2.
